Data reported in US5328898A, “Factor XIIIA fibrin binding fragments” (Duke University, priority 1990, dated 1994).
Ends that are not written are not given here.

How the values were obtained:
fibrin [1] = target: T1, fibrin (Homo sapiens, UniProt P02671+P02675+P02679); assay: Inhibition of 125I-DDAVY. . . peptide binding to fibrin (competition)
T1 construct: the mixture was clotted by the addition of 10 U/mL of thrombin; After 10 minutes at 37° C., the fibrin was compressed
T1 sequence (P02671 36-629 isoform P02671-2 limits assumed): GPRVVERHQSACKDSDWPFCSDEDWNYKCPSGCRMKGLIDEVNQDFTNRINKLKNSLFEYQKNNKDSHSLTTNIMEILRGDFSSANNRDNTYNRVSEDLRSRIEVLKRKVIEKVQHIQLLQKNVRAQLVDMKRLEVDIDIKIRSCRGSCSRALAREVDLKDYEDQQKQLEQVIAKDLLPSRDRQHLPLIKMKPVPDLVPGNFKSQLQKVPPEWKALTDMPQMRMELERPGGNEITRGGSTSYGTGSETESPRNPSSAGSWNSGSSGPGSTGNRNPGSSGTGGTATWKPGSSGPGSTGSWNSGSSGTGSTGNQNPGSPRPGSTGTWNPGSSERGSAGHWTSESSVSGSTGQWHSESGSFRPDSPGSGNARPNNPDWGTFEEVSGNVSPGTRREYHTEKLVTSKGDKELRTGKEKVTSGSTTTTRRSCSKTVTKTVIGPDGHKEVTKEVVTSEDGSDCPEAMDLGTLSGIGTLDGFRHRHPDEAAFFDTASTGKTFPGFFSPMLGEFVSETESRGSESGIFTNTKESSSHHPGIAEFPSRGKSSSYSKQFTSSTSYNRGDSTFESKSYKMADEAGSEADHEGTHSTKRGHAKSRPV
T1 sequence (P02675 45-491 limits assumed): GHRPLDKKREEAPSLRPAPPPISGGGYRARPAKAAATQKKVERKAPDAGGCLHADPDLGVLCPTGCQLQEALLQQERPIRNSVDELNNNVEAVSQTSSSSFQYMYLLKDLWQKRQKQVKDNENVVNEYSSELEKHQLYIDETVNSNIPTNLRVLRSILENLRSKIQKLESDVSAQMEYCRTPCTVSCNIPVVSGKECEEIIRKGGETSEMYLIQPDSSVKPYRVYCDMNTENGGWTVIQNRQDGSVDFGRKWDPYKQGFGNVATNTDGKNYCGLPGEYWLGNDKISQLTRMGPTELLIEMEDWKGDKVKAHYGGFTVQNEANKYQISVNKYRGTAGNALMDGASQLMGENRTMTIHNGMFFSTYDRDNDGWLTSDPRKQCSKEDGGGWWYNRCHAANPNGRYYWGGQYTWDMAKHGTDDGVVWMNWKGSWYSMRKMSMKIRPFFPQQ
T1 sequence (P02679 27-437 isoform P02679-2 limits assumed): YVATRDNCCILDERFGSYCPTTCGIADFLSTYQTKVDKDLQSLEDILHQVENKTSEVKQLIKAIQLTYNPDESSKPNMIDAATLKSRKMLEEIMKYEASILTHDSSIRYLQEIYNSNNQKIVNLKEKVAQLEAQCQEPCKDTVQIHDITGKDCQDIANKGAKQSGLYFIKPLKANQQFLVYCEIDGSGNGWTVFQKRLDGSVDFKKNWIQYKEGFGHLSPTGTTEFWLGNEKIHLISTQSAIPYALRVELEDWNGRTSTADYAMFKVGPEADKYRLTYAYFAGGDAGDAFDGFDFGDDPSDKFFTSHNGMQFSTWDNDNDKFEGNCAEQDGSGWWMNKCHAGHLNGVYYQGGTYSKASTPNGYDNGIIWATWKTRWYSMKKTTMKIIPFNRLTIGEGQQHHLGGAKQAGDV
Experimental: (§1) Binding of radiolabeled DDAVY. . . peptide prepared in accordance with Example 3 above was conducted in the presence of the following proteins: human albumin (Kabi), bovine serum albumin (BSA), hemoglobin, and cytochrome C. Fibrin binding was performed by incubating 0.5 mg/mL fibrinogen, 0.1% Triton X-100, 0.15M NaCl, 0.1M Tris, pH 7.4 (TBS), 10 mM CaCl2, and ^125 I-labeled DDAVY. . . peptide and the mixture was clotted by the addition of 10 U/mL of thrombin. After 10 minutes at 37° C., the fibrin was compressed by centrifugation (10-12,000 rpm for 10 minutes), washed thrice with TBS and the bound radioactivity was quantitated using a gamma Counter. Proteins were included in the binding mixture at these concentrations: hemoglobin (100 micromolar); human albumin (Kabi) (100 micromolar); and cytochrome C (500 micromolar). Fibrin concentration was approximately 1.0 micromolar.
Purified recombinant platelet Factor XIII A-chains were used to inhibit the binding of DDAVY. . . peptide to fibrin. At a concentration of 0.4 mg/mL fibrinogen, 2.0 mg/mL of recombinant platelet Factor XIII inhibited the binding of DDAVY. . . peptide to fibrin by 76%. In another experiment, purified placental Factor XIII A-chains were used to inhibit DDAVY. . . peptide binding to fibrin. Binding was conducted in the presence of 1.0 mg/mL fibrinogen, 5 nanomoles of placental Factor XIII and approximately 0.05 nanomoles of the DDAVY. . . peptide. Under these conditions, the binding of the peptide to fibrin was inhibited by nearly 44%.
Binding of radiolabeled DDAVY. . . peptide (approximately 52 pmoles) was mixed with unlabeled DDAVY. . . peptide (approximately 34 nanomoles;=660-fold molar excess over radiolabeled peptide) and the mixture was bound to 0.1 mg/mL fibrin. Under these conditions, the binding of radiolabeled peptide was inhibited by nearly 83%. […] In these experiments and in the experiments conducted in the presence of XIII, binding values were corrected for nonspecific binding observed in the absence of thrombin and/or in the presence of XIII or unlabeled DDAVY. . . peptide alone.

fibrin [2] = target: T1, fibrin; assay: Fibrin binding of radiolabeled peptides; details: unbound material analyzed by reverse phase HPLC
Experimental: By reverse phase HPLC, peptides containing portions of the N- and C-terminal amino acid sequences of the DDAVY. . . peptide were separated from the full length DDAVY. . . peptide.
as §1

Factor XIIIa = assay: Factor XIIIa-catalyzed crosslinking of fibrin II (SDS-PAGE); type: biochemical; details: human fibrinogen 0.27 mg/mL
Experimental: This example illustrates the effect of DDAVY. . . peptide and NKLIV. . . peptide on fibrin crosslinking by Factor XIIIa. Purified human fibrinogen (0.27 mg/mL) was mixed with increasing concentrations (56 micromolar to 280 micromolar) of the DDAVY. . . peptide and incubated for 15 minutes at 37° C. Then, calcium chloride was added in 0.1M Tris, pH7.4 containing 0.15M NaCl (Tris-buffered saline, TBS) to make the final calcium concentration equal 10 mM. The mixture was then clotted by the addition of 10 U/mL thrombin. Thrombin also served to activate the catalytic amounts of Factor XIII present in the fibrinogen preparation. The mixture was incubated for an additional 15 minutes at 37° C. and then solubilized in SDS-PAGE buffer containing 5% sodium dodecylsulfate (SDS), 4M urea, 10mM Tris, pH7.4, 1.0 mM ethylenediaminetetraacetic acid (EDTA), 1% 2-mercaptoethanol, and 0.001% bromophenol blue. The mixture was boiled for 5 minutes, cooled, and then separated by electrophoresis on a 4-15% linear gradient polyacrylamide gel (SDS-polyacrylamide gel electrophoresis, SDS-PAGE). After electrophoresis, the gel was stained using Coomassie Brilliant Blue and destained. Control incubations were conducted simultaneously that contained no peptide.
The reaction was also conducted as described for the DDAVY. . . peptide, except that NKLIV. . . peptide was substituted for the DDAVY. . . peptide. […]

placental Factor XIII A-chains: purified placental Factor XIII A-chains
inhibition of the binding of DDAVY. . . peptide to fibrin (fibrin [1]; 1.0 mg/mL fibrinogen, 5 nanomoles placental Factor XIII, approximately 0.05 nanomoles DDAVY. . . peptide): ~44%

recombinant platelet Factor XIII: Purified recombinant platelet Factor XIII A-chains
inhibition of the binding of DDAVY. . . peptide to fibrin (fibrin [1]; 0.4 mg/mL fibrinogen, 2.0 mg/mL recombinant platelet Factor XIII): 76%

KTRSWSYGQF [C-terminal portion of the DDAVY. . . peptide separated by HPLC]
binding to fibrin (fibrin [2]): did not bind to fibrin

DDAVYLDNEKEREEYVLNDIGVIFYGEVNDIKTRSWSYGQF-amide (DDAVYLDNEKEREEYVLNDIGVIFYGEVNDIKTRSWSYGQF-NH2) [DDAVY. . . peptide]
binding to fibrin (fibrin [2]): bound to fibrin | inhibition of fibrin crosslinking (Factor XIIIa; 280 micromolar peptide): ~50% | concentration at which inhibition of fibrin crosslinking could be detected (Factor XIIIa; 10 U/mL thrombin, 10 mM calcium): around 112 micromolar | inhibition of binding of radiolabeled DDAVY. . . peptide to fibrin (fibrin [1]; 1.0 mg/mL unlabeled peptide, 2.0 micrograms/mL radiolabeled peptide, 0.2 mg/mL fibrin): inhibited completely | inhibition of binding of radiolabeled DDAVY. . . peptide to fibrin (fibrin [1]; approximately 34 nanomoles unlabeled peptide (660-fold molar excess over approximately 52 pmoles radiolabeled), 0.1 mg/mL fibrin): ~83%

GEVNDIKTRSWSYGQF [C-terminal portion of the DDAVY. . . peptide separated by HPLC]
binding to fibrin (fibrin [2]): did not bind to fibrin
